Here are results for two proteins from publication PMC10378331, “Structural and Kinetic Characterization of the SpeG Spermidine/Spermine N-acetyltransferase from Methicillin-Resistant Staphylococcus aureus USA300” (Cells, 2023).

Substrate in series [1]: NCCCCNCCCN
In words: DTNB colorimetric CoA assay, discontinuous. It counts as biochemical, Staphylococcus aureus. Conditions: Assay 1 (standard), no pre-incubation with polyamine, 0.5 mM AcCoA, 70 mM Bicine pH 8.0, 20 mM NaCl, 37 °C, Hill fit. The text has this:
(§1) DTNB colorimetric CoA assay, discontinuous on SaSpeG

Substrate in series [2]: CC(=O)SCCNC(=O)CCNC(=O)[C@H](O)C(C)(C)COP(=O)(O)OP(=O)(O)OC[C@H]1O[C@@H](n2cnc3c(N)ncnc32)[C@H](O)[C@@H]1OP(=O)(O)O
In words: DTNB colorimetric CoA assay, discontinuous. Type of series: biochemical, Staphylococcus aureus. Conditions: Assay 2, enzyme pre-incubated with spermine, co-substrate 1.5 mM spermine (acceptor and allosteric ligand), 70 mM Bicine pH 8.0, 20 mM NaCl, 0.005% Triton X-100, 22 °C, 22.0 °C.
Description: as §1

Series [3] deals with the molecule itself. In words: crystal structure; ligand-free SaSpeG, 0.1 M NaCl, 0.1 M HEPES pH 8.0, 1.6 M ammonium sulfate; one protomer in the asymmetric unit; oligomer from symmetry-related proteins and PISA analysis.

B1: SaSpeG (Staphylococcus aureus subsp. aureus USA300) (protein)
chain: MKLRALEYSDLLFVHELNNEYSIMSYWFEEPYESLTELQHLFDKHLLDESERRFIVEDENQVVGIVELVEINYIHRNCEIQIIIKPEFSGKGYAKFAFEKAIIYAFNILNMHKIYLYVDADNKKAIHIYESQGFKTEGLLKEQFYTKGKYKDAYFMSLLKSEYIL
notes: E. coli BL21(DE3); dodecamer by PISA
The term kcat denotes the maximal rate divided by the concentration of active sites. Usually kcat/Km stands for the turnover number divided by the Michaelis constant. Regarding B1, in series [1], the K0.5 was 4.0 ± 0.1 mM, the catalytic constant (kcat) turned out to be 3 s⁻¹ and the kcat/Km was found to be 750 M⁻¹ s⁻¹. Also, in series [2], the K0.5 worked out at 0.29 ± 0.01 mM, the turnover number (kcat) stood at 390 s⁻¹ and the catalytic efficiency (kcat/Km) amounted to 1.3e+06 M⁻¹ s⁻¹.

B2: SpeG spermidine/spermine N-acetyltransferase from Staphylococcus aureus USA300 (enzyme)
chain: MKLRALEYSDLLFVHELNNEYSIMSYWFEEPYESLTELQHLFDKHLLDESERRFIVEDENQVVGIVELVEINYIHRNCEIQIIIKPEFSGKGYAKFAFEKAIIYAFNILNMHKIYLYVDADNKKAIHIYESQGFKTEGLLKEQFYTKGKYKDAYFMSLLKSEYIL
notes: SpeG spermidine/spermine N-acetyltransferase, Staphylococcus aureus USA300, UniProt A0A0H2XGJ0; gene synthesized and cloned into pMCSG21 at the SspI site; monomer ~19.8 kDa; after TEV cleavage the residues SN would remain at the N-terminus; The number of copies differs by experiment: dodecamer from crystal symmetry and PISA, trimer/tetramer by SEC; also called SaSpeG; source: E. coli BL21 (DE3) …
In general, stoichiometry N refers to a count of units in the complex or per binding partner. In the case of B2, the “stoichiometry N” value in series [3] came out at 12.
